Key:
IP-10 = target: T1, IP-10 (Homo sapiens, UniProt P02778); assay: Micro-array analysis of chemokine binding peptides: IP-10; conditions: limit = start of the upper 75% of that peptide's response range
T1 construct: purchased 300-12
T1 sequence (P02778 22-98): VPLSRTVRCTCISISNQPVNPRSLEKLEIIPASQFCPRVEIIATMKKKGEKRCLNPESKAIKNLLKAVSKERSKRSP
Description: (§1) (1) Printing: Chemokine (CK) solution (in water) was serially diluted with Print Reagent (GenTel BioSurfaces USA) to final concentrations of 50 μg and 25 μg/ml. BSA/BSA-Biotin control solutions (in water) were diluted with Print Reagent to 100 μg/ml. Amplified stock of M13 phage control (M13KEgIII Cloning Vector, New England Biolabs, Cat.No.E8101S) was stored in Tris Buffered Saline (TBS; pH7.5, 4° C.) and diluted with Print Reagent to the working titre (10^8 pfu/μl). An automated spotting robot (16 pin print tool, 0.4 mm head; BioRobotics, UK) was used to print the CK/BSA control/M13 control, 5 repeats per sample (CK 25 μg/ml and 50 μg/ml; BSA 100 μg/ml; M13 20 μl), on PATH Protein Microarray Slides (GenTel, Prod.No. 2-1005/-1025) at […], and 50-70% relative humidity. Printed micro-array slides were stored at Room Temperature (RT) or 4° C. for at least 24 h before use.
(§2) (2) Blocking: Block Buffer (500 μl/partition; PATHblock, GenTel, Prod.No. 2-1014) was applied to the slide for 1 hour at room temp (RT). After removal of Block Buffer, the slide was air dried for 25 minutes;
(§3) (3) Phage Presented Peptide Binding: Amplified recombinant phage stock was stored in TBS and diluted with Wash Buffer to working titer (10^7 pfu/μl). Recombinant phage suspension (300 μl) was applied per partition and incubated at RT for 1 hour with gentle agitation.
(§4) (4) First Washing: The slides were washed twice with Wash Buffer 300 μl/partition).
(§5) (5) Primary Antibody (Ab) Labeling: The slides were incubated with the Primary Ab (1 mg/ml diluted ×2500 (Wash Reagent), 300 μl; Mouse Anti-M13 monoclonal Ab; Amersham Biosciences, UK; Product Code 27-9420-01) for 45 minutes at RT.
(§6) (6) Second Washing: The slides were washed twice with Wash Buffer (300 μl/partition).
(§7) (7) Secondary Ab Labeling: The slides were incubated with Secondary Ab (1.5 mg/ml diluted ×5000 (Wash Reagent), 300 μl; Cy3-conjugated AffiniPure Goat Anti-Mouse IgG; Jackson ImmunoReserch Labs, USA; Product Code 115-165-062).
(§8) (8) Third Washing: The slides were washed twice with Wash Buffer (300 μl/partition).
(§9) (9) Rinse: the slides were rinsed twice with Rinse Buffer (PATHrinse, GenTel, Prod.No. 2-1018) then dried well.
(§10) (10) Scanning: The peptide-bound, labeled slide was scanned (Laser Intensity 80%, Gain 80%, Resolution 10 μm) with a ScanArray Life Scanner (Packard BioChip Technologies, USA).
(§11) (11) Analysis: Quantitative analysis of micro-array was performed by the SpotReader program of Niles Scientific (USA) and presented as Relative Fluorescence (RF) as a function of CK concentration. Micro-array readout (Cy3 fluorescence) was quantified to determine the relative binding affinities of a CBP for the CKs and by inference, the specificity of the CBP for binding to a CK.

I-TAC = target: T2, I-TAC (Homo sapiens, UniProt O14625); assay: Micro-array analysis of chemokine binding peptides: I-TAC; conditions: limit = start of the upper 75% of that peptide's response range
T2 construct: purchased 300-46
T2 sequence (O14625 22-94): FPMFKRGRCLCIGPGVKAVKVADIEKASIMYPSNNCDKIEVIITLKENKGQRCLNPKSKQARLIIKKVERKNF
Description: as §1, §2, §3, §4, §5, §6, §7, §8, §9, §10, §11

Eotaxin 3 = target: T3, Eotaxin 3 (Homo sapiens, UniProt Q9Y258); assay: Micro-array analysis of chemokine binding peptides: Eotaxin 3; conditions: limit = start of the upper 75% of that peptide's response range
T3 construct: purchased 300-48
T3 sequence (Q9Y258 24-94): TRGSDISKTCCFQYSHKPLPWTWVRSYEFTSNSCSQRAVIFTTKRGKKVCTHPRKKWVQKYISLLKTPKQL
Description: as §1, §2, §3, §4, §5, §6, §7, §8, §9, §10, §11

SDF1-α = target: T4, SDF1-α (Homo sapiens, UniProt P48061); assay: Micro-array analysis of chemokine binding peptides: SDF1-α
T4 construct: purchased 300-28a
T4 sequence (P48061 22-89 limits assumed): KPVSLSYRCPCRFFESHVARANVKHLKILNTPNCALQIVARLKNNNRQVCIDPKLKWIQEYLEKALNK
Description: as §1, §2, §3, §4, §5, §6, §7, §8, §9, §10, §11

SDF1-β = target: T5, SDF1-β (Homo sapiens, UniProt P48061); assay: Micro-array analysis of chemokine binding peptides: SDF1-β
T5 construct: purchased 300-28b
T5 sequence (P48061 22-93): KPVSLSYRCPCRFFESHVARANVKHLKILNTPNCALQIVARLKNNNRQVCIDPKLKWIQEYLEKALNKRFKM
Description: as §1, §2, §3, §4, §5, §6, §7, §8, §9, §10, §11

BCA-1 = target: T6, BCA-1 (Homo sapiens, UniProt O43927); assay: Micro-array analysis of chemokine binding peptides: BCA-1
T6 construct: purchased 300-47
T6 sequence (O43927 23-109): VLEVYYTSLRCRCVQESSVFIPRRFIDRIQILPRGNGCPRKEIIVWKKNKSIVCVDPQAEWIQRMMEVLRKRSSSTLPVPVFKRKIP
Description: as §1, §2, §3, §4, §5, §6, §7, §8, §9, §10, §11

TECK = target: T7, TECK (Homo sapiens, UniProt O15444); assay: Micro-array analysis of chemokine binding peptides: TECK
T7 construct: purchased 300-45
T7 sequence (O15444 24-150): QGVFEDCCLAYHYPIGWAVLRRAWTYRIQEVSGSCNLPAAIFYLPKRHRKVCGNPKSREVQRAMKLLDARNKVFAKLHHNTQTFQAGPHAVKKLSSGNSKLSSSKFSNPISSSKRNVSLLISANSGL
Description: as §1, §2, §3, §4, §5, §6, §7, §8, §9, §10, §11

Exodus-2 = target: T8, Exodus-2 (Homo sapiens, UniProt O00585); assay: Micro-array analysis of chemokine binding peptides: Exodus-2
T8 construct: purchased 300-35
T8 sequence (O00585 24-134): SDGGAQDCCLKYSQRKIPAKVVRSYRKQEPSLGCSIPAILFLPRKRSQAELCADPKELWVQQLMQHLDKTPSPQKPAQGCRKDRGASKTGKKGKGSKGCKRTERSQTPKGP
Description: as §1, §2, §3, §4, §5, §6, §7, §8, §9, §10, §11

C-TAC = target: T9, C-TAC (Homo sapiens, UniProt Q9Y4X3); assay: Micro-array analysis of chemokine binding peptides: C-TAC
T9 construct: purchased 300-54
T9 sequence (Q9Y4X3 25-112): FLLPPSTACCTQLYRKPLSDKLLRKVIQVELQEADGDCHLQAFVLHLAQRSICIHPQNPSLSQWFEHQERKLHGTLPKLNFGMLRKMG
Description: as §1, §2, §3, §4
(5) Primary Antibody (Ab) Labeling: The slides were incubated with the Primary Ab (1 mg/ml diluted ×2500 (Wash Reagent), 300 μl; Mouse Anti-M13 monoclonal Ab; Amersham Biosciences, UK; Product Code 27-9420-01) for 45 minutes at RT. […]
as §11

Substance: NAMCK (listed as Homo sapiens) [Ph-p8.11]
- binding to IP-10 with relatively high affinity (Relative Fluorescence Units) (IP-10): > 10,000 RFU
- binding to I-TAC with relatively high affinity (Relative Fluorescence Units) (I-TAC): > 10,000 RFU
- binding to Eotaxin 3 with relatively high affinity (Relative Fluorescence Units) (Eotaxin 3): > 10,000 RFU
- binding to SDF1-α, stated in words (SDF1-α): bound
- binding to SDF1-β, stated in words (SDF1-β): bound
- binding to BCA-1, stated in words (BCA-1): bound
- binding to TECK, stated in words (TECK): bound
- binding to Exodus-2, stated in words (Exodus-2): bound
- binding to C-TAC, stated in words (C-TAC): bound

From patent US12072338B2, “Pharmaceutical peptides for the treatment of inflammatory diseases” (PROTAGONISTS LTD., priority 2007, dated 2024)
